Patent publication US6833135

Tested on: T1, Ms6 integrase (Int) (Mycobacterium phage Ms6)
T1 sequence: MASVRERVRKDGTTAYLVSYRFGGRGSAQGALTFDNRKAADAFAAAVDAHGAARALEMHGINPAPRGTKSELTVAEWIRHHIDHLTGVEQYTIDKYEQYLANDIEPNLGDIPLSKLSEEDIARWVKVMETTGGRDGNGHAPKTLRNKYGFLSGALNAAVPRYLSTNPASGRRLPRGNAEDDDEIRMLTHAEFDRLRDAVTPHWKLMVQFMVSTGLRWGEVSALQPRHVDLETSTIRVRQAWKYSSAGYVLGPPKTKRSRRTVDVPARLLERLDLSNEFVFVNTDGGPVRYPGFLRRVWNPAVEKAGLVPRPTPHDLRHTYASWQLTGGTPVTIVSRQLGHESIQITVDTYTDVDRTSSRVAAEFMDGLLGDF
Assay: cell_activity
Conditions: for activity (transformants/ug DNA): M. smegmatis

Row | Substance | activity (transformants/ug DNA) (no integration) | also measured
1 | CAGCAGACACCCACATGTCCGTGTTGTCACTGACAACACGGCTCCAGGTTTTCCCAGGTCGCTACAGGTCTAAAAAGGTCGGAACAGAACCACACGGGTGTTTTTTCGCAGGTAAACGCCCATTTCCCCACGATCGAAGGGGTTCGAATCCCCTTAGCTCCACCCAAAACCGCAGGTCAGCGAATCGCCCAGAATCTGACAGCACCGATGACATCACAACGGATAGAATCCGGGTATGGCATCAGTGCGTGAACGGGTCCGCAAAGAC (double strand) [Ms6 attP region, 273 bp (pAV3, primers p13/p2N)] |  | activity (colonies/ug DNA) (integrase in trans from suicide helper pAV4, about): 40000
2 | Ms6 attP-int fragment, 1382 bp (primers pC/p10) | 0 | 
3 | Ms6 attP-int fragment, 1459 bp (primers p1C/p10) | 0 | 
4 | Ms6 attP-int fragment, 1521 bp (primers p13/p10) |  | activity (transformants/ug DNA) (smallest functional cassette): 100000
